The target of one assay is T1, human CEACAM5 (human, UniProt P06731 35-685).
T1 construct: whole, on cells; Target on MKN-45 (DSMZ ACC409) and LS180 (ATCC CL-187) cells; also called carcinoembryonic antigen-related cell adhesion molecule 5; CD66e
T1 sequence (looked up): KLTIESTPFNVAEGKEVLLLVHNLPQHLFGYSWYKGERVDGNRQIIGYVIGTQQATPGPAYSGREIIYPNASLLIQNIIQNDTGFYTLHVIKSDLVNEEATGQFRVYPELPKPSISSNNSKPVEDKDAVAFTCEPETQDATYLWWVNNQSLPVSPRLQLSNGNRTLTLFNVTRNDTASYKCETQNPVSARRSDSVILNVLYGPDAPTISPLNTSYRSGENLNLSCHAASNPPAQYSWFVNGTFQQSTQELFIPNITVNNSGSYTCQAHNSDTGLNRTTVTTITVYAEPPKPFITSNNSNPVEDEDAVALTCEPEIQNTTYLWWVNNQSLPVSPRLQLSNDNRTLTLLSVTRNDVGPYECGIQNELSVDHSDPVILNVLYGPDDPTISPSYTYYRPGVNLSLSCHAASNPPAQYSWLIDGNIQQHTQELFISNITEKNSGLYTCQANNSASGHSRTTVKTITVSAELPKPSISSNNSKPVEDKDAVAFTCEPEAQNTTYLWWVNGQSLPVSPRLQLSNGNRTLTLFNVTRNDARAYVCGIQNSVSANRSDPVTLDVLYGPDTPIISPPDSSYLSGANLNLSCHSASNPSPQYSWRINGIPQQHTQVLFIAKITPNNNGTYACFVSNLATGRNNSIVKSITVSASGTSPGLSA
Put plainly: FACS on MKN-45 cells expressing human CEACAM5. As to the method: 10 μl of a 1×10⁴ MKN-45 (DSMZ ACC409) cell suspension in assay buffer was seeded in all Wells of a 384 well polypropylene plate (Weidmann #23490-101). Then 10 μl of antibodies diluted in assay buffer (double concentrated), at a start concentration of 100 μg/ml, serially diluted 1:4 were added to the plate. After 90 minutes incubation at 4° C., 60 μl assay buffer was added followed by a centrifuge step (330×g, 5 min) and an aspirating step (BioTek washer 405H) where 60 μl of supernatant were discarded. 20 μl of detection antibody (Alpaca anti rabbit IgG Chromotek #srbAF647-1) diluted in assay buffer (double concentrated) to a final concentration of 0.5 μg/ml was added to all Wells followed by 1 hour incubation time at room temperature. The cells were then subjected to two washing steps with 40 μl and 60 μl assay buffer as described above and then resuspended in 20 μl assay buffer. Cell binding was measured on an iQue Screener Plus high throughput FACS device from Sartorius/Intellicyt.

A further assay addresses T2, human CEACAM1 (human, UniProt P13688 35-526).
T2 construct: whole, on cells; also called CHO-CEACAM1
T2 sequence (looked up): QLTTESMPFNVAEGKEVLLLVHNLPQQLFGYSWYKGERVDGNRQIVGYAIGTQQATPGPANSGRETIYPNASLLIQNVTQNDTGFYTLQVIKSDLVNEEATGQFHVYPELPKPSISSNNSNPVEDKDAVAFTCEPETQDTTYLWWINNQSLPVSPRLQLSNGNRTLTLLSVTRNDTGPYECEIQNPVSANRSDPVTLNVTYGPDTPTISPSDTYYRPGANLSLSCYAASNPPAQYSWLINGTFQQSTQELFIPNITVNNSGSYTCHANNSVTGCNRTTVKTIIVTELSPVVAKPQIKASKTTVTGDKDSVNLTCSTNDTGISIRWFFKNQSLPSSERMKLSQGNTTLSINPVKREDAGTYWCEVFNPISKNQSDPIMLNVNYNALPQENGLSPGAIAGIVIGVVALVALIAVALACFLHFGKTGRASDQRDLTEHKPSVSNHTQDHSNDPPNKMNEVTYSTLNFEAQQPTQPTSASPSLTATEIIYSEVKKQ
Nature of the assay: FACS on CHO cells overexpressing human CEACAM1. As to the method:
(§1) Viability of CHO-CEACAM1 (CHO cells overexpressing human CEACAM1) and CHO-CEACAM6 (CHO cells overexpressing human CEACAM6) cells was checked. Then 100 μl of re-suspended target cells were seeded into a U-bottom plate (100′000 cells/well). The antibodies were diluted in FACS buffer. The plates were centrifuged for 4 min at 400×g and supernatant was removed. Then 25 µl/well of the diluted antibodies were added to the cells. The cells were incubated for 45 min at 4° C. After the incubation, cells were washed twice and 25 μl/well of diluted (1/100 in FACS buffer) PE anti-human Fc secondary antibody (Jackson Immuno Research, #109-116-170) or the directly labeled CD66 antibody (Clone B1.1/CD66, BD Bioscience, #551480) was added to the cells. The cells were incubated for 45 min at 4° C. After the incubation, cells were washed twice. Then cells were re-suspended in 150 μl/well of FACS buffer. Cell binding was measured on the BD LSRFortessa Flow Cytometer, the same day.

A further assay addresses T3, human CEACAM6 (human, UniProt P40199 35-320).
T3 construct: whole, on cells; also called CHO-CEACAM6
T3 sequence (looked up): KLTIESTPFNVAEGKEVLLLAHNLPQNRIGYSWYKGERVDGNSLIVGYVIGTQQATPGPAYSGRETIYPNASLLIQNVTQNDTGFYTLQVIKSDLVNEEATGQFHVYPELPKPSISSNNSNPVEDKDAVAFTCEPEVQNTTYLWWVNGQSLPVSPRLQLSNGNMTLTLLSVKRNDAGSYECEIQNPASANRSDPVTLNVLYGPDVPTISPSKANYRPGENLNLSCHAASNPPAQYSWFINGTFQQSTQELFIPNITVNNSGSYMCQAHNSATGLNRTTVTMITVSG
Put plainly: FACS on CHO cells overexpressing human CEACAM6. As to the method:
as §1

B1: P1AI5015 (antibody, human IgG1, V domains shown)
VH: EVQLVESGGGLVQPGGSLRLSCAASGFNIKDTYMHWVRQAPGKGLEWVGRIDPANGNSKYADSVKGRFTISADTSKNTAYLQMNSLRAEDTAVYYCAPFGYYVSDYAMAYWGQGTTVTVSS
VL: EIVLTQSPATLSLSPGERATLSCRAGESVDIFGVGFLHWYQQKPGQAPRLLIYRGSNRATGIPARFSGSGSGTDFTLTISSLEPEDFAVYYCQQTYEYPYTFGQGTKLEIK
By EC50 is commonly meant the concentration at which the effect is half-maximal. On to B1, for which, in the assay with human CEACAM5, the midpoint of the response, the EC50, lay at 0.483 µg/mL. For the same molecule, the binding result in the assay with human CEACAM1 and with human CEACAM6 was “no binding” in each case.

B2: P1AI5017 (antibody, human IgG1, V domains shown)
VH: EVQLVESGGGLVQPGGSLRLSCAASGFNIKDTYMHWVRQAPGKGLEWVGRIDPANGNSKYADSVKGRFTISADTSKNTAYLQMNSLRAEDTAVYYCAPFGYYVSDYAMAYWGQGTTVTVSS
VL: EIVLTQSPATLSLSPGERATLSCRAGESVDIFGVGFLHWYQQKPGQAPRLLIYRGSNRATGIPARFSGSGSGTDFTLTISSLEPEDFAVYYCQQTSEYPYTFGQGTKLEIK
B2: in the assay with human CEACAM5, the response was half-maximal at 0.762 µg/mL (EC50). Further, the binding result with human CEACAM1 and with human CEACAM6 was “no binding” each time.

B3: P1AI5016 (antibody, human IgG1, V domains shown)
VH: EVQLVESGGGLVQPGGSLRLSCAASGFNIKDTYMHWVRQAPGKGLEWVGRIDPANGNSKYADSVKGRFTISADTSKNTAYLQMNSLRAEDTAVYYCAPFGYYVSDYAMAYWGQGTTVTVSS
VL: EIVLTQSPATLSLSPGERATLSCRAGESVDIFGVGFLHWYQQKPGQAPRLLIYRGSNRATGIPARFSGSGSGTDFTLTISSLEPEDFAVYYCQQTVEYPYTFGQGTKLEIK
Regarding B3, the EC50 with human CEACAM5 was determined as 0.588 µg/mL. The binding result in the assay with human CEACAM1 and in the assay with human CEACAM6 was “no binding” in each case.

B4: P1AI5018 (antibody, human IgG1, V domains shown)
VH: EVQLVESGGGLVQPGGSLRLSCAASGFNIKDTYMHWVRQAPGKGLEWVGRIDPANGNSKYADSVKGRFTISADTSKNTAYLQMNSLRAEDTAVYYCAPFGYYVSDYAMAYWGQGTTVTVSS
VL: EIVLTQSPATLSLSPGERATLSCRAGESVDIFGVGFLHWYQQKPGQAPRLLIYRGSNRATGIPARFSGSGSGTDFTLTISSLEPEDFAVYYCQQTTEYPYTFGQGTKLEIK
The molecule B4 gave an EC50 in the assay with human CEACAM5 of 0.65 µg/mL. Moreover, the binding result in the assay with human CEACAM1 and with human CEACAM6 was “no binding” throughout.

B5: P1AI5031 (antibody, human IgG1, V domains shown)
VH: EVQLVESGGGLVQPGGSLRLSCAASGFNIKDTYMHWVRQAPGKGLEWVGRIDPANGNSKYADSVKGRFTISADTSKNTAYLQMNSLRAEDTAVYYCAPFGYYVSDYAMAYWGQGTTVTVSS
VL: EIVLTQSPATLSLSPGERATLSCRAGESVDIFGVGFLHWYQQKPGQAPRLLIYRGSNRMTGIPARFSGSGSGTDFTLTISSLEPEDFAVYYCQQTNEDPYTFGQGTKLEIK
notes: also called 24_A55M
Molecule B5 gave an EC50 in the assay with human CEACAM5 of 2.42 µg/mL. Also, the binding result in the assay with human CEACAM1 and with human CEACAM6 was “no binding” in each case.

B6: P1AI5014 (antibody, human IgG1, V domains shown)
VH: EVQLVESGGGLVQPGGSLRLSCAASGFNIKDTYMHWVRQAPGKGLEWVGRIDPANGNSKYADSVKGRFTISADTSKNTAYLQMNSLRAEDTAVYYCAPFGYYVSDYAMAYWGQGTTVTVSS
VL: EIVLTQSPATLSLSPGERATLSCRAGESVDIFGVGFLHWYQQKPGQAPRLLIYRGSNRATGIPARFSGSGSGTDFTLTISSLEPEDFAVYYCQQTNEDPYTFGQGTKLEIK
B6: it took 1.53 µg/mL to reach a half-maximal effect in the assay with human CEACAM5 (EC50). Also, the binding result with human CEACAM1 and with human CEACAM6 was “no binding” throughout.

(Values after patent US20260071002A1 (Hoffmann-La Roche, published 2026).)
